Source: patent publication US20200362047A1 (CRESCENDO BIOLOGICS, published 2020)

molecular target: T1, human CD137 expressed on the surface of CHO cells (human, UniProt Q07011 24-255); experiment: FMAT ligand inhibition, CD137 Ligand on CHO human CD137 cells
T1 construct: Also used for the Jurkat reporter cells that express human CD137 (functional rows); also called CHO human CD137 cells; CHO huCD137
Protocol: In parallel to the binding assay, periplasmic extracts were tested for their ability to inhibit the interaction of human CD137 ligand protein with CHO human CD137 cells in an FMAT format. Total binding controls containing diluted periplasmic extract sample buffer and non-specific binding controls containing excess non-Fc tagged competitor were set up on each plate for data normalisation. Fluorescence signal was measured using the TTP Mirrorball and the FL2 median mean fluorescence intensity of gated used for the data normalisation. The data was expressed as a % of the total binding control (% control) after subtraction of the background signal determined from the non-specific binding control wells.
The ability of purified Humabody VH to inhibit the binding of CD137 Ligand to CHO human CD137 cells was measured in the FMAT ligand inhibition assay essentially as described in Example 6. VH inhibited the binding of human CD137 Ligand to human CD137.

T1 sequence (Q07011 24-255 limits assumed): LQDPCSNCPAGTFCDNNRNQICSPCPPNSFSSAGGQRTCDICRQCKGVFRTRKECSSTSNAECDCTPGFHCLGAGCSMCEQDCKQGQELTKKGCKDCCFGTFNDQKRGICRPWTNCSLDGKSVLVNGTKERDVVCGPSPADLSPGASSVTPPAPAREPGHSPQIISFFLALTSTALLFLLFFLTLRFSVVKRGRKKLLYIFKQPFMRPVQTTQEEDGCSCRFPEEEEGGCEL

IC50	Binder
0.47 nM	Humabody VH 1.112 (VHH, human single VH domain) VHH: EVQLVESGGGLVQPGGSLRLSCAATGFTLSNYWMNWVRQAPGKGLEWVANINQDGSERYYVDSVKGRFTISRDNAKNSLYLQMNSLRAEDTAVYYCARGGEGYGVDHYGLDVSGQGTTVTVSS
0.75 nM	Humabody VH 1.111 (VHH, human single VH domain) VHH: EVQLVESGGGLVQPGGSLRLSCAASGFTLSNYWMNWVRQAPGKGLEWVANINQDGSERYYVDSVKGRFTISRDNAKNSLYLQMSSLRAEDTAVYYCARGGEGYGVDHYGLDVSGQGTTVTVSS
16 nM	Humabody VH 2.41 (VHH, human single VH domain) VHH: EVQLVESGGGLVKPGGSLRLSCAASGFTFSDYYMSWFRQAPGKGLEWVSYISGSGDIIDYADSVKGRFTISRDNAKNSLYLQMNNLRAEDTAVYHCAREDSRLTGTTDFDNWGQGTLVTVSS
42 nM	Humabody VH 2.49 (VHH, human single VH domain) VHH: EVQLVESGGGLVKPGGSLRLSCAASGFTFSDYYMSWIRQAPGKGLEWVSYISGSGDIIDYADSVKGRFTISRDNAKNSLYLQMNSLRAEDTAVYYCAREDPRLTGTTDFDNWGQGTLVTVSS
200 nM	Humabody VH 2.42 (VHH, human single VH domain) VHH: EVQLVESGGGLVKPGGSLRVSCAASGFTFSDYYMSWIRQAPGKGLEWVSYISGSGDIIDYADSVKGRFTISRDNAKNSLYLQMNNLRAEDTAVYHCAREDSRLTGTTDFDNWGQGTLVTVSS
78 nM	Humabody VH 2.46 (VHH, human single VH domain) VHH: EVQLVESGGGLVKPGGSLRLSCAASGFTFSDYYMSWIRQAPGKGLEWVSYISGSGDIIDYADSVKGRFTISRDNAKNSLYLQMNSLRAEDTAVYYCAREDSRLTGTTDFDNWGQGTLVTVSS
86 nM	Humabody VH 2.48 (VHH, human single VH domain) VHH: EVQLVESGGGLVKPGGSLRLSCAASGFTFSDYYMSWIRQAPGKGLEWVSYISGSGDIIDYADSVKGRFTISRDNAKNSLYLQMNSLRAEDTAVYYCAREDARLTGTTDFDNWGQGTLVTVSS
14 nM	Humabody VH 2.50 (VHH, human single VH domain) VHH: EVQLVESGGGLVKPGGSLRLSCAASGFTFSDYYMSWFRQAPGKGLEWVSYISGSGDIIDYADSVKGRFTISRDNAKNSLYLQMNSLRAEDTAVYYCAREDARLTGTTDFDNWGQGTLVTVSS
5.3 nM	Humabody VH 2.45 (VHH, human single VH domain) VHH: EVQLVESGGGLVKPGGSLRLSCAASGFTFSDYYMSWFRQAPGKGLEWVSYISGSGDIIDYADSVKGRFTISRDNAKNSLYLQMNNLRAEDTAVYYCAREDSRLTGTTDFDNWGQGTLVTVSS
27 nM	Humabody VH 2.51 (VHH, human single VH domain) VHH: EVQLVESGGGLVKPGGSLRLSCAASGFTFSDYYMSWFRQAPGKGLEWVSYISGSGDIIDYADSVKGRFTISRDNAKNSLYLQMNSLRAEDTAVYYCAREDPRLTGTTDFDNWGQGTLVTVSS
8.8 nM	Humabody VH 2.47 (VHH, human single VH domain) VHH: EVQLVESGGGLVKPGGSLRLSCAASGFTFSDYYMSWFRQAPGKGLEWVSYISGSGDIIDYADSVKGRFTISRDNAKNSLYLQMNSLRAEDTAVYYCAREDSRLTGTTDFDNWGQGTLVTVSS

Further lines, the binder ahead of its results:

Binder	IC50
Humabody VH 1.107 (VHH, human single VH domain) VHH: EVQLVESGGGLVQPGGSLRLSCAASGFTLSNYWMNWVRQAPGKGLEWVANINQDGSERYYVDSVKGRFTISRDNAKNSLYLQMSSLRAEDTAVYFCARGGEGYGVDHYGLDVSGQGTTVTVSS	0.55 nM
Humabody VH 1.109 (VHH, human single VH domain) VHH: EVQLVESGGGLVQPGGSLRLSCAATGFTLSNYWMNWVRQAPGKGLEWVANINQDGSERYYVDSVKGRFTISRDNAKNSLYLQMSSLRAEDTAVYYCARGGEGYGVDHYGLDVSGQGTTVTVSS	0.9 nM
Humabody VH 1.110 (VHH, human single VH domain) VHH: EVQLVESGGGLVQPGGSLRLSCAASGFTLSNYWMNWVRQAPGKGLEWVANINQDGSERYYVDSVKGRFTISRDNAKNSLYLQMNSLRAEDTAVYFCARGGEGYGVDHYGLDVSGQGTTVTVSS	0.81 nM
Humabody VH 1.108 (VHH, human single VH domain) VHH: EVQLVESGGGLVQPGGSLRLSCAATGFTLSNYWMNWVRQAPGKGLEWVANINQDGSERYYVDSVKGRFTISRDNAKNSLYLQMNSLRAEDTAVYFCARGGEGYGVDHYGLDVSGQGTTVTVSS	0.5 nM
Humabody VH 1.90 (VHH, human single VH domain) VHH: EVQLVESGGGLVQPGGSLRLSCAASGFTFSSHWMTWVRQAPGKGLEWVAHIKEDGSEKYYEDSVEGRFTVSRDNAKNSVYLQMNSLRAEDTAVYYCARGGDGYSDSHFGVDVWGQGTTVTVSS	7.8 nM
Humabody VH 1.102 (VHH, human single VH domain) VHH: EVQLVESGGGLVQPGGSLRLSCAASGFTFSSHWMTWFRQAPGKGLEWVAHIKEEGSEKYYVDSVKGRFTISRDNAKNSLYLQMNSLRAEDTAVYYCARGGDGYSDSHFGVDVWGQGTTVTVSS	1.7 nM
Humabody VH 1.92 (VHH, human single VH domain) VHH: EVQLVESGGGLVQPGGSLRLSCAASGFTFSSHWMTWFRQAPGKGLEWVAHIKEDGSEKYYEDSVKGRFTVSRDNAKNSVYLQMNSLRAEDTAVYYCARGGDGYSDSHFGVDVWGQGTTVTVSS	2.9 nM
Humabody VH 1.93 (VHH, human single VH domain) VHH: EVQLVESGGGLVQPGGSLRLSCAASGFTFSSHWMTWFRQAPGKGLEWVAHIKEDGSEKYYEDSVEGRFTISRDNAKNSVYLQMNSLRAEDTAVYYCARGGDGYSDSHFGVDVWGQGTTVTVSS	0.7 nM
Humabody VH 1.91 (VHH, human single VH domain) VHH: EVQLVESGGGLVQPGGSLRLSCAASGFTFSSHWMTWFRQAPGKGLEWVAHIKEDGSEKYYVDSVKGRFTVSRDNAKNSVYLQMNSLRAEDTAVYYCARGGDGYSDSHFGVDVWGQGTTVTVSS	1.9 nM
Humabody VH 1.104 (VHH, human single VH domain) VHH: EVQLVESGGGLVQPGGSLRLSCAASGFTFSSHWMTWFRQAPGKGLEWVAHIKEDGSEKYYVDSVKGRFTISRDNAKNSLYLQMNSLRAEDTAVYYCARGGVGYSDSHFGVDVWGQGTTVTVSS	1.1 nM
Humabody VH 1.99 (VHH, human single VH domain) VHH: EVQLVESGGGLVQPGGSLRLSCAASGFTFSSHWMTWFRQAPGKGLEWVAHIKEDESEKYYVDSVKGRFTISRDNAKNSLYLQMNSLRAEDTAVYYCARGGDGYSDSHFGVDVWGQGTTVTVSS	1.5 nM
Humabody VH 1.97 (VHH, human single VH domain) VHH: EVQLVESGGGLVQPGGSLRLSCAASGFTFSSHWMTWVRQAPGKGLEWVAHIKEDESEKYYVDSVKGRFTISRDNAKNSLYLQMNSLRAEDTAVYYCARGGVGYSISHFGVDVWGQGTTVTVSS	3.8 nM
Humabody VH 1.106 (VHH, human single VH domain) VHH: EVQLVESGGGLVQPGGSLRLSCAASGFTFSSHWMTWFRQAPGKGLEWVAHIKEDESEKYYVDSVKGRFTISRDNAKNSLYLQMNSLRAEDTAVYYCARGGEGYSISHFGVDVWGQGTTVTVSS	2.1 nM
Humabody VH 1.94 (VHH, human single VH domain) VHH: EVQLVESGGGLVQPGGSLRLSCAASGFTFSSHWMTWFRQAPGKGLEWVAHIKEDGSEKYYEDSVEGRFTVSRDNAKNSLYLQMNSLRAEDTAVYYCARGGDGYSDSHFGVDVWGQGTTVTVSS	0.8 nM
Humabody VH 1.103 (VHH, human single VH domain) VHH: EVQLVESGGGLVQPGGSLRLSCAASGFTFSSHWMTWFRQAPGKGLEWVAHIKEDGSEKYYVDSVKGRFTISRDNAKNSLYLQMNSLRAEDTAVYYCARGGEGYSDSHFGVDVWGQGTTVTVSS	1.3 nM
Humabody VH 1.100 (VHH, human single VH domain) VHH: EVQLVESGGGLVQPGGSLRLSCAASGFTFSSHWMTWFRQAPGKGLEWVAHIKEDESEKYYVDSVKGRFTISRDNAKNSLYLQMNSLRAEDTAVYYCARGGDGYSISHFGVDVWGQGTTVTVSS	1.4 nM
Humabody VH 1.96 (VHH, human single VH domain) VHH: EVQLVESGGGLVQPGGSLRLSCAASGFTFSSHWMTWFRQAPGKGLEWVAHIKEDGSEKYYVDSVKGRFTISRDNAKNSLYLQMNSLRAEDTAVYYCARGGDGYSDSHFGVDVWGQGTTVTVSS	2.7 nM
Humabody VH 1.95 (VHH, human single VH domain) VHH: EVQLVESGGGLVQPGGSLRLSCAASGFTFSSHWMTWVRQAPGKGLEWVAHIKEDGSEKYYVDSVKGRFTISRDNAKNSLYLQMNSLRAEDTAVYYCARGGDGYSDSHFGVDVWGQGTTVTVSS	24 nM
Humabody VH 1.101 (VHH, human single VH domain) VHH: EVQLVESGGGLVQPGGSLRLSCAASGFTFSSHWMTWFRQAPGKGLEWVAHIKEGGSEKYYVDSVKGRFTISRDNAKNSLYLQMNSLRAEDTAVYYCARGGDGYSDSHFGVDVWGQGTTVTVSS	7.9 nM
Humabody VH 1.98 (VHH, human single VH domain) VHH: EVQLVESGGGLVQPGGSLRLSCAASGFTFSSHWMTWVRQAPGKGLEWVAHIKEDESEKYYVDSVKGRFTISRDNAKNSLYLQMNSLRAEDTAVYYCARGGEGYSISHFGVDVWGQGTTVTVSS	4.7 nM
Humabody VH 1.105 (VHH, human single VH domain) VHH: EVQLVESGGGLVQPGGSLRLSCAASGFTFSSHWMTWFRQAPGKGLEWVAHIKEDESEKYYVDSVKGRFTISRDNAKNSLYLQMNSLRAEDTAVYYCARGGVGYSISHFGVDVWGQGTTVTVSS	2.8 nM
